Results as given in a protein production outcome set (Wang et al. 2014).

Assay: label from the status in PepcDB records
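Also: failed if final PepcDB status was selected cloned or expressed and not failed if soluble or beyond.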

Sequence	protein production
MTKHIPLQATSACAAVPPSAVLDSAHLGEIRGALGTIAADDRAPRRTLKARLQTLLAIAGPGLIVMVGDNDAGAFGTYTQAGQNYGTTLLWTLLLLIPVLYVNQEMVVRLGAVTGVGHARLIFARFGKFWGAFSVADLFLLNALTLVTEFIGISLALQYLGLSQFWGVIAAAVIITFAVSTGDFRRFERFALLLVAGSLLLIPVAVMVHPPLPQLAHDFFVPKMPAGAPLGEVMLLIIAIVGTTIAPWQLFFQQSYLIDKRITPRFIRYERWDLCVGIALVIIGAVAMIGFSAAAFAGRPEFGAYTDALGTAHGLEQAAGRLPAILFALALLDASIIGAAAVSLATAYAIGDVFAVAHSLHRKPSEAKGFYAVYAGLIAFAAALVVTPGMPLGLLTNAVQTLAGVLLPSATVFLLLLCNDKAVLGPWVNRRAGNLFTGAIVAVLVLLSVILTVSVLFPGVGETTILGILGGGVVGALLLSGAVALIARRGQGVRAEPPARSVVAPEEWRMPLLATLPPARLSAVSRTWLLVLRGYLVLAAGLVLYRIVELIAR	failed
MRMFFSGLMESLKENKITFLWVLLFFLVGIVLGSYTVYYMSDFNRVEITTYFNNFLEFLGGNSVSYTSILVDSIKSILPMVAIIVLLGYTAVGTPIILMMDLAKGYVIGFTFSLIVSMLGSKGVMLVLSGLMLQNLIFIPIIMLISVLAIRHSVTKLKMGVSRDRVKLDVSRAYLNFQGLLSLIIISGILIETYISPNLIRLVISR	failed
ARQRFIYIARHRSENIAYYAQALKIDGMVLKAESRRFYPLAEEASQLIGFTDVDDQQGSEGLERSFNSLLVGKNGKQIIRKDARGNVIENIRDEKQYDPQDVMLSID	failed
MKVTNLFKDKVDAISAHQSEFMNWMSPTLRDYWSDFLGKAQNSFLFSNVRDHNQPAVNEEVAPQPAPIVLQPEAQKLYDELSGKIGEVIHTGDWVHVSQERINQFGAVTEDMQWIHTDPERASVESPFKTTIAHGFLTLALLPKLTDSVDADKPLFPTAKLVVNLGLNQVRFPYPVKAGNNVRAVSTLTKVTPIKKGLEIEREIKVEIEGVRRPGAVVVSVIQLHFLEHHHHHH	not failed
MSSWRPAVRTDTGWPLIRRTARCHMLRNPKNAGWCRSSAATASWRSCTVPRASAWPTSRTAVPRPMVGYQCGQVFRACCVKSQETGDLDVGGLQETDKIIEVEEEQEDPYLNDRCRGGGPCKQQCRDTGDEVVCSCFVGYQLLSDGVSCEDVNECITGSHSCRLGESCINTVGSFRCQRDSSCGTGYELTEDNSCKDIDECESGIHNCLPDFICQNTLGSFRCRPKLQCKSGFIQDALGNCIDINECLSISAPCPIGHTCINTEGSYTCQKNVPNCGRGYHLNEEGTRCVDVDECAPPAEPCGKGHRCVNSPGSFRCECKTGYYFDGISRMCVDVNECQRYPGRLCGHKCENTLGSYLCSCSVGFRLSVDGRSCEDINECSSSPCSQECANVYGSYQCYCRRGYQLSDVDGVTCEDIDECALPTGGHICSYRCINIPGSFQCSCPSSGYRLAPNGRNCQDIDECVTGIHNCSINETCFNIQGGFRCLAFECPENYRRSAATLQQEKTDTVRCIKSCRPNDVTCVFDPVHTISHTVISLPTFREFTRPEEIIFLRAITPPHPASQANIIFDITEGNLRDSFDIIKRYMDGMTVGVVRQVRPIVGPFHAVLKLEMNYVVGGVVSHRNVVNVHIFVSEYWF	failed
MVAKGLIRIVLDILKPHEPIIPEYAKYLSELRGVEGVNITLMEIDKETENIKVTIQGNDLDFDEITRAIESYGGSIHSVDEVVAGRTMVEEVTTPQD	failed
MQQHSSKTAYVYSDKLLQYRFHDQHPFNQMRLKLTTELLLNANLLSPEQIVQPRIATGDELMLIHKYDYVEAIKHASHGIISEDEAKKYGLNDEENGQFKHMHRHSATIVGGALTLADLIMSGKVLNGCHLGGGLHHAQPGRASGFCIYNDIAITAQYIAKEYNQRVLIIDTDAHHGDGTQWSFYADNHVTTYSIHETGKFLFPGSGHYTERGEDIGYGHTVNVPLEPYTEDASFLECFKLTVEPVVKSFKPDIILSVNGVDIHYRDPLTHLNCTLHSLYEIPYFVKYLADSYTNGKVIMFGGGGYNIWRVVPRAWSHVFLSLIDQPIQSGYLPLEWINKWKHYSSELLPKRWEDRLNDYTYVPRTKEISEKNKKLALHIASWYESTRQLEHHHHHH	failed
MEIKYLSLCILAGILFVSQVNASENNGKDDVKYAALTQKDLDALPVEKRASVLDELGFIHEYGIGVPMNRERALQYYKQACELGGNYGCYNVKYAYQYGDGVAKDSAQANKYAKKMNLDNLLIEQEYIDKFSQGIYAAKVLADTDKSQRPEFINALFNLLNNRPESDALFFSRIGFNQEKTFRLATLWVQDGDPQMDYQLGLLTLNDFSGHYVDEPYKARPASLKWFRAATEKGVVEAQSLLGGIYSGGEGDEWGIKPDIQEAQKWYGQAAEQGDSDAQIALGKIYYSGATGRTDYAKALALFTQVENDGTNSRSTMPLSWMYYNGLGTAPDCDKAWSYYKKASRYVGKKVEEKIFLSKCAADIQSRKNNADALPRVTLKKASIFSRGITAKPKECALIFQIGTDKIRNMANLHITLELKNADGMATEETLMIPPFGLNTLGIDMQNHDVDPLVTPYDLPLYTQDFCHGIGDIHFTLKSATATINGKNVDLLKADSVRFLDKE	failed
LLGLGVGPGDPELITLKALRLLRAAPVVGYFVAKGKKGNAFGIIEAHLDQAQVRLPLVYPVTTEKLEPPLCYETIISDFYDTAAEQLAAHLDAGRDVAVICEGDPFFYGSYMYLHDRLATRYESEVVPGVCSMLGGAAVLGAPLVYRNQSLSVLSGVLPEEELRRRLADADAAVVMKLGRNFDKVRRVLVELGLERRALYVERATMANQRIVPLERVEPMASPYFSLIVVPGDKWQGGAGGE	failed
MPQDPTERRVVVTGPPRRARRAFDYYRPRTEIDEQTTLGHTYVRSLMRSQLRAGLAVFAVLVLLVGPLPLVFAAIPDARRLTWAVLGFCLYAPLVLLARWYVRRAERNERDFVRLVEDR	failed
MEGPLNLAHQQSRRADRLLAAGKYEEAISCHRKATTYLSEAMKLTESEQAHLSLELQRDSHMKQLLLIQERWKRAKREERLKAH	not failed
MLVEDSGHHLPESADIENALDLLLKAQLERAFGPELAEHFWAARQPRTLDERLAFIRKCWIGVFKDSPLSTFGLERLEQLERLCRSKRRGRELSAAEHHQFAEELARLWEQVQRLLPRAAPETSYASSASAGGVHSGDAHTPATLSDAESAHAAPEAMRIEAPATSARSASGCMARVSSDVAAAATNVSLVVLDGENIAWAHGQNAVFSPKGIAIAVDFFRKRGYRCVVFLPDYRRKRADLPTVSASDALVFVPAGEYDDTFALGYAVGHDAILVTNDLLQDHLDQFYPDEGEAREALRKWLGSHRCSFTFVGDEFLPNPHFFLP	failed
MTAVGADAPKPGAPIKEPRFGFLRRTYAMLVKELIQLKRDRLTFAMIIVIPVMQLLLFGYAINTTPRHLPTAVLLQEDSDLGRSILKALENTAYFKFTREVHSVAEFDDLLLSGRVLFGVEIPRGFERAVRRGEKPAILVAADATDPVAAGSALSALGQIVQTALMHDRVGGDPANPPFEIRAHARYNPAASSRLNIVPGLVGTILTMTMLIFTALSVTREIERGTMENLLSMPITPVEVMLGKILPYVGVGFIQASLILGIGVLLFGVPLRGSLAMLALLSTLFITTNLAIGYTFSTLVQNQLQAMQASMMFFLPSILLSGFMFPFAGMPIWAQYIGECLPLTHYLRIVRAIMLKGSTLENLQYDAVALLTLMLIAMTIAVTRFRRTLD	failed
MGHHHHHHSHMAGPSNVPAFLTKLWTLVSDPDTDALICWSPSGNSFHVFDQGQFAKEVLPKYFKHNNMASFVRQLNMYGFRKVVHIEQGGLVKPERDDTEFQHPCFLRGQEQLLENIKRKVTSVS	not failed
MEVVRIPEFKEKTAPGAYYQQPAIDGSRPGRFYANLFDIKATPKYGMRTLAYHEGIPGHHFQVAVAMELEGQPLIRKMAPFTAYIEGWALYSERVAWELGFQQDPFDNIGRLQAELFRAVRLVVDTGIHHSRWTREQAIDYMKKNTGMSDRDVTAEIERYIVMPGQATAYKVGMMKILELREKAKQALGDKFDLRDFHDVVLKNGAVPLDILEKLVDRYIADKR	failed
MKFQLKRLAKKRPDRVQIKIQDGQFEIIGMGVWHSYWRDPYHLLLTIPWTGFLLLICLSYLAINLIFALAYWLGGDCIANAKPGNFLDLFFFSVQTLASIGYGAMYPKTLYANTVVTIEAMIGLVGIAVMTGLAFARFSRPSARVIFSRVAVITPYNDVPTLMFRTANQRRNLILEAQMRVYLMRDEITAEGGFIRRFHDLKLLRNQTPSFTLSWLALHPIDEFSPLYGMSAESLIQTNTNIIISVSGIDETVAQVVHARYTYTASNILWNSRFVDIFHHTSDGHRYIDYKYFHDVLPLDKIG	failed
MIDTHIHSDTRGLEDLELMAMCLDGVITLAHDPFEMKNIKVWEAHVEKLLINELERAKKVGLNLFICVGMHPRAIPPEIDEALDKIKSYINYNSRVVGIGEIGLEKATKEEKEVFIKQLLLAEELNMPAVVHTPRRNKEEVTKIILDEISTLNLKNRDIVIEHCNKETTKWVLDEEFYVGLTIQPGKLTPLEAVEIVKEYKDFADKILLNSDCSSNASDVLAVPRTVLKMKINGIEKDVIYKVAHKNAVNLFGLDI	failed
LEEALGILDTQRVEIAKRRHLNAVLRHIPAGVAAVDNQGVVQSLNPALAQLLDLPVSAALGRPLQQLCPELDLQQALQEGTGEENRVMRLGSHAVVSNLLPILENGERTGLVLTCQDITVVQRADQRIR	failed
MVVVTGREPDSRRQDGAMSSSDAEDDFLEPATPTATQAGHALPLLPQEFPEVVPLNIGGAHFTTRLSTLRCYEDTMLAAMFSGRHYIPTDSEGRYFIDRDGTHFGDVLNFLRSGDLPPRERVRAVYKEAQYYAIGPLLEQLENMQPLKGEKVRQAFLGLMPYYKDHLERIVEIARLRAVQRKARFAKLKVCVFKEEMPITPYECPLLNSLRFERSESDGQLFEHHCEVDVSFGPWEAVADVYDLLHCLVTDLSAQGLTVDHQCIGVCDKHLVNHYYCKRPIYEFKITWW	failed
MTGGAAAAPPGRGAAFSWCLFDFANSGYPTVVATFVFSAYVTKAVAATPEAGTAAWGYAMGASGLLIALLAPIFGAVADHSGRRKPWLGLFSLLCVASTALMWTIRPDPAFLLAALVLAALSNAAFEIGGVFYNAMLPDVTTPERMGRLSGWAWGLGYAGGLACLVIALLALVQADPPPFGLDKAAAEPVRATLVLVALWFVVFGWPLFAFVPERPTGRVLALGAAARGAIDSLKGLPALFRGDPRLGWFLLARMLYTEGLNTLFAFGGIYAAGTFDMGFDQIIVFGIGLNITAGLGAFAFGWIDDWLGSPRTIVVGLIGLIGFCVAVLLVEDTAWFVGLALTMGIFFGPVQAASRTHIARVAPPDRRGELFGLFALTGKISAFAGPLAVGLATDLSGSQRLGMATVVVFLVAGLGLLVKTRAPRG	failed
MSSASGLRRGHPAGGEENMTETDAFYKREMFDPAEKYKMDHRRRGIALIFNHERFFWHLTLPERRGTCADRDNLTRRFSDLGFEVKCFNDLKAEELLLKIHEVSTVSHADADCFVCVFLSHGEGNHIYAYDAKIEIQTLTGLFKGDKCHSLVGKPKIFIIQACRGNQHDVPVIPLDVVDNQTEKLDTNITEVDAASVYTLPAGADFLMCYSVAEGYYSHRETVNGSWYIQDLCEMLGKYGSSLEFTELLTLVNRKVSQRRVDFCKDPSAIGKKQVPCFASMLTKKLHFFPKSNLEHHHHHH	failed
RAKALQKVKEAITLHGGQTILSTGITGDDARLAKAVCEAGVKLLEPNHPALALARGHKGVSNMHAAEQIRHEITNSQMAEAVHGVRNVVPDDIFITVGIAGGFTETLPVPLSEKEILEIARAGADGLHTHKSDWDDLQDIVNLAHQYGLTVDAYIGHPDDLHTFGIPARTPEEVASVAKRMQDIGVDMIGLMTGMSYEGVAAGDIPQMIKDRLRALVGAVDVPTLAEGGINLANAKAFKDTGVNILVVGTAI	failed
